Measured values as given in US20220332804A1 (CSL INNOVATION, published 2022).

T1: human C2 S278A (human, UniProt P06681 21-752)
T1 sequence: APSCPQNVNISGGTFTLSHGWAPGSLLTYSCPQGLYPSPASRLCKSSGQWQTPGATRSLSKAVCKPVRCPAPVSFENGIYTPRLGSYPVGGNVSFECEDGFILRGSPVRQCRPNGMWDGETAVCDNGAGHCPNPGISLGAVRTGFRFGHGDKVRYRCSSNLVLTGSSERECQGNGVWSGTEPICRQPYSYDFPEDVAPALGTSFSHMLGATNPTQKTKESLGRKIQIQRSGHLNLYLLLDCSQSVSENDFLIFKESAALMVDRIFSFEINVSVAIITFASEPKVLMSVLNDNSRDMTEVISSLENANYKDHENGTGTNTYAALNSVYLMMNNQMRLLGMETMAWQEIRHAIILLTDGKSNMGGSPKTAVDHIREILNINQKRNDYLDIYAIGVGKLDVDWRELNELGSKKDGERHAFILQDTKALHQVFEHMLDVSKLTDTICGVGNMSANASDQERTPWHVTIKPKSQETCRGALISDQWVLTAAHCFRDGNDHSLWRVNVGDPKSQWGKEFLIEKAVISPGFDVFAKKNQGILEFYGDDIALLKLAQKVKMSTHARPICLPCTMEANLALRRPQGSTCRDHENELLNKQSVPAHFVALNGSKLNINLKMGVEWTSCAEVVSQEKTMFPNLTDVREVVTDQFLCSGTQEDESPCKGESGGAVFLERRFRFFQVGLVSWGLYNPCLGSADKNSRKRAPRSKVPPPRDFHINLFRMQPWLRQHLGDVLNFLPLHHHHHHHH

T2: human C2 M316A (human, UniProt P06681 21-752)
T2 sequence: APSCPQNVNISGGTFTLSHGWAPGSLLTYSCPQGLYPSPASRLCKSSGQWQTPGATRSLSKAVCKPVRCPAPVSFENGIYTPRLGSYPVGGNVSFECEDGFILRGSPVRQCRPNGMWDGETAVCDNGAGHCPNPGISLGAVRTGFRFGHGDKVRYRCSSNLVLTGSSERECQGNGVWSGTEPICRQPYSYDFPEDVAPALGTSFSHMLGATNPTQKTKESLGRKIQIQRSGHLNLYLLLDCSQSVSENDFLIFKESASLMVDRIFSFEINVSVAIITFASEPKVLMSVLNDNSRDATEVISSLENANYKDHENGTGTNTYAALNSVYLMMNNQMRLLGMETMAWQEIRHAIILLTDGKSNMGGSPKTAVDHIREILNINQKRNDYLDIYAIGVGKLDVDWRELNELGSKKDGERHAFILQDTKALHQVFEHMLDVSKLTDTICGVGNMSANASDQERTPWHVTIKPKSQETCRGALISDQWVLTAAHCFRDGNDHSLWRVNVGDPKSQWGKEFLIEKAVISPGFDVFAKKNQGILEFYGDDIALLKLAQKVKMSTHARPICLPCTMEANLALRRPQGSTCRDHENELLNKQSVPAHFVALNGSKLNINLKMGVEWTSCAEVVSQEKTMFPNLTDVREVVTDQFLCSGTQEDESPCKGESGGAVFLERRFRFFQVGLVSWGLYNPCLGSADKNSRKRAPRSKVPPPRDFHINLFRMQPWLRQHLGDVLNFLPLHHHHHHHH

T3: human C2 L701A (human, UniProt P06681 21-752)
T3 sequence: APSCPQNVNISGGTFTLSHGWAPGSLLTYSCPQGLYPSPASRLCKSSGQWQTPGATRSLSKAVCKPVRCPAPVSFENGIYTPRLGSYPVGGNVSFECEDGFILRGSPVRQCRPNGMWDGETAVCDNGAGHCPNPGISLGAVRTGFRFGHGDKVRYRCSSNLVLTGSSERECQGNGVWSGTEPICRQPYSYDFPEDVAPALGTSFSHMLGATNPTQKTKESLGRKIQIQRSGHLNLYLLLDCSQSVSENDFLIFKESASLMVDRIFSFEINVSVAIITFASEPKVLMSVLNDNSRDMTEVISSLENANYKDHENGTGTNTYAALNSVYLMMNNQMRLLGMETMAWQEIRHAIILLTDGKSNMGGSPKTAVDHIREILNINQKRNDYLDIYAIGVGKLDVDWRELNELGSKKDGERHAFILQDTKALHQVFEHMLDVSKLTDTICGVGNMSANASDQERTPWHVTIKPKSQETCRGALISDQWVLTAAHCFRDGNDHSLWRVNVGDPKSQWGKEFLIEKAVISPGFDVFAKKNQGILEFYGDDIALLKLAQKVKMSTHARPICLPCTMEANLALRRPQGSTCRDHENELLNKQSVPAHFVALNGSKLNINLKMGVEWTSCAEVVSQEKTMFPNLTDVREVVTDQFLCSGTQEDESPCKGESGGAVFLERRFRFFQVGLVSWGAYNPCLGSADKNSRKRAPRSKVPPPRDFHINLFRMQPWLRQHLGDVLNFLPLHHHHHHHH

T4: human C2 E556A (human, UniProt P06681 21-752)
T4 sequence: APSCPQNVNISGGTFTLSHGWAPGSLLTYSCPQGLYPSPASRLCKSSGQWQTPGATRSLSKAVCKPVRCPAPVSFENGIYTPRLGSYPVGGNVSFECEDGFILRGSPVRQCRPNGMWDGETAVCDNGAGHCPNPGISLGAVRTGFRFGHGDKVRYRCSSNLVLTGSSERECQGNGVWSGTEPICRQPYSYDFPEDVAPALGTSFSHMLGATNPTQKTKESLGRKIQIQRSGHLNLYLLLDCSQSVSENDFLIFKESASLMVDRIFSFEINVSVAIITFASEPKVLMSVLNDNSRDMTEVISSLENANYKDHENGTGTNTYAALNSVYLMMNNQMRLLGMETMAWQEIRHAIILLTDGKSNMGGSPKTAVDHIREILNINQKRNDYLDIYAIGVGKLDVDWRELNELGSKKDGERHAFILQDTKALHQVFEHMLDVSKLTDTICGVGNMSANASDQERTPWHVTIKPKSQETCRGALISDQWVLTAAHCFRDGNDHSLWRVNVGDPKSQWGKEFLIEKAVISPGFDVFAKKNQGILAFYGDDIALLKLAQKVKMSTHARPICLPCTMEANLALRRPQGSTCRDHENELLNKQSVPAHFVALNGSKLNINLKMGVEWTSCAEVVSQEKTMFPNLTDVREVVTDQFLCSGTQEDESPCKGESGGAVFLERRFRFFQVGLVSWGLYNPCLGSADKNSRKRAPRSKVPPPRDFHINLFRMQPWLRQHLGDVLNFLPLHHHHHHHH


Assays:
human C2 S278A = target: T1, human C2 S278A; assay: SPR; KD relative to WT C2;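 note: biacore SPR at 37 °C, anti-C2 mAbs captured on an anti-human IgG chip, alanine or serine C2 surface mutants tested, KD from 1:1 fit compared with wild-type C2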
Procedure: (§1) Surface plasmon resonance (SPR, Biacore) was used for all binding affinity analyses. In brief, goat anti-human IgG was directly immobilised onto the carboxymethyl dextran surface of CM5 sensorchips to approximately 12,000 RU using standard NHS/EDC chemistry at pH 5. The immobilised antibody surface was pre-conditioned with ten injections of polyclonal human IgG (Privigen 60 s) prepared at 1 μg/mL. Ligands (anti-C2 mAbs) were captured at the beginning of each cycle as described below. An adjacent spot or flow cell in which only Polyclonal IgG was capture was used as a reference surface. The goat anti-human IgG Fc antibody surface was regenerate in 100 mM H3PO4, injected for 45 seconds at the end of each cycle. Experiments were performed at 37° C. and the flow rate of each experiment was kept constant at 30 μL/min.
(§2) Sensogram data was double-referenced against a reference anti-IgG surface (i.e. minus anti-C2 mAb) and blank buffer injections obtained within each experiment. The binding data was fit to 1:1 (kinetic or steady-state) model using local Rmax and null refraction index (RI=0) when appropriate. Buffers and solutions were filtered (0.22 μm) prior to use.
(§3) The C2 mutants were designed to test the importance of surface exposed residues for antibody binding. Residues located at either the N-terminal VWA domain or C-terminal protease domain of C were replaced by either alanine or serine and tested for binding against anti-C2 antibodies.

human C2 M316A = target: T2, human C2 M316A; assay: SPR; KD relative to WT C2;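 note: biacore SPR at 37 °C, anti-C2 mAbs captured on an anti-human IgG chip, alanine or serine C2 surface mutants tested, KD from 1:1 fit compared with wild-type C2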
Procedure: as §1, §2, §3

human C2 L701A = target: T3, human C2 L701A; assay: SPR, KD relative to WT C2;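 note: biacore SPR at 37 °C, anti-C2 mAbs captured via immobilised goat anti-human IgG, C2 alanine or serine surface mutants as analytes, 1:1 model fitted, double-referenced sensograms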
human C2 E556A = target: T4, human C2 E556A; assay: SPR, KD relative to WT C2;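 note: biacore SPR at 37 °C, anti-C2 mAbs captured via immobilised goat anti-human IgG, C2 alanine or serine surface mutants as analytes, 1:1 model fitted, double-referenced sensograms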

Binder | Fold diff (human C2 S278A) [fold] | Fold diff (human C2 M316A) [fold] | Fold diff (human C2 L701A) [fold] | Fold diff (human C2 E556A) [fold]
RF16-214 (antibody, V domains shown) VH: EVQLLESGGGLVQPGGSLRLSCAASGFTFSWYQMMWVRQAPGKGLEWVSRIYPSGGGTAYADSVKGRFTISRDNSKNTLYLQMNSLRAEDTAVYYCARDAGYGDNWGQGTLVTVSS VL: QSALTQPPSVSVSPGQTASITCSGDKLGEKYASWYQQKAGQSPVMVIYQDRKRPSGIPERFSGSNSGNTATLTISGTQAMDEADYYCQAWDTRAVVFGGGTKLTVLG | 1 | 1 |  | 
RF16-226 (antibody, human IgG4 S228P, lambda, pH-dependent anti-C2 antibody from a phage display library; also called WT) heavy: not shown light: SYELTQPPSVSVSPGQTARITCSGDALTSKYVAWYQQKSGLAPLLVIYEDTRRPSGIPAKFSGSSSGSVATLTISGAHGDDEADYYCYSTDASGHQRVFGGGTKLTVLSQPKAAPSVTLFPPSSEELQANKATLVCLISDFYPGAVTVAWKADGSPVKAGVETTKPSKQSNNKYAASSYLSLTPEQWKSHRSYSCQVTHEGSTVEKTVAPTECS |  |  | 16 | 1
